Key:
Assay in all cases: SEC + other: SDS-PAGE
[1] = target: Δ(185-243) Glu34Lys apoA-I (globular domain, residues 1-184) (human)
[2] = target: Δ(185-243) Leu159Arg apoA-I (globular domain, residues 1-184) (human)
[3] = target: Δ(185-243) Phe71Tyr apoA-I (globular domain, residues 1-184) (human)
[4] = target: Δ(185-243) WT apoA-I (globular domain, residues 1-184, of human apolipoprotein A-I) (human)

Question: With “Δ(185-243) Glu34Lys apoA-I (globular domain, residues 1-184) (domain or fragment)” as the substance, how does the stoichiometry N [1] read?
Answer: The stoichiometry N was 2.

Question: For “Δ(185-243) Leu159Arg apoA-I (globular domain, residues 1-184) (domain or fragment)”, which stoichiometry N [2] is on record?
Answer: Its stoichiometry N is 2.

Question: With “Δ(185-243) Phe71Tyr apoA-I (globular domain, residues 1-184) (domain or fragment)” as the substance, how does the stoichiometry N [3] read?
Answer: The stoichiometry N was 2.

Question: “Δ(185-243) WT apoA-I (globular domain, residues 1-184, of human apolipoprotein A-I) (domain or fragment)” was tested. Which stoichiometry N [4] did it give?
Answer: Its stoichiometry N is 2.
